Experimental data as given in publication PMC3894725 (Nature, 2012).

Target: the molecule itself
Assay: crystal structure

B1: human pyruvate kinase M2 (His6-hPKM2) (enzyme)
chain: not shown
  stoichiometry N: 4
